{
  "source": "patent US20250361284A1",
  "about": "“TRANSPOSASE FUSION PROTEINS FOR USE IN CELL AND GENE THERAPY” (JULIUS-MAXIMILIANS-UNIVERSITÄT WÜRZBURG, priority 2022, published 2025)",
  "type_in_all_cases": "cell-based, human",
  "key": {"[1]": {"system": "CD4+ T cells", "assay": "CAR gene transfer (EGFRt flow cytometry) in CD4+ T cells, dd-SB100X vs wild type SB100X plasmid", "conditions": "day 7", "description": "(4A) CAR gene transfer in CD4+ T cells using dd-SB100X fusion-transposase vs. wild type SB100X transposase. CD3/CD28 activated CD4+ T cells were nucleofected with CD19-CAR_EGFRt SB transposon minicircle DNA and plasmid encoding either the fusion-transposase (pdd-SB100X/dd-SB100X) or the wild type SB transposase (pSB100X/SB100X). At 7 days post-nucleofection, flow cytometric analysis was performed to determine the percentage of T cells that express the EGFRt reporter. Top panel: Dot plots show EGFRt expression on day 7 post-nucleofection.\n(§1) Anonymous healthy donor blood samples were received upon written consent to participate in research protocols approved by the Institutional Review Board of the Universitätsklinikum Würzburg (UKW). Blood samples were processed for T cells isolation as published earlier (Querques et al., 2019). Briefly, Peripheral blood mononuclear cells (PBMCs) were isolated by density centrifugation with Biocoll separating solution (Biochrom). Both CD4+ and CD8+ T cells were sorted by negative isolation approach using microbeads and magnetic associated cell sorting (MACS, Miltenyi) methods as described by the manufacturer. The isolated CD4+ and CD8+ T cells were cultured in T cell medium (RPMI-1640 with 10% (vol/vol) human serum, 2 mM L-glutamine, 100 U ml-1 penicillin-streptomycin) containing IL-2 (50 units per mL) and activated by anti-CD3/CD28 bead stimulation (Thermo Fisher). Two days post-activation, approximately 2 million T cells were nucleofected with vectors (1 μg of CD19 CAR (EGFRt)-encoding transposon as plasmid or minicircle DNA; 1 μg of mRNA encoding SB transposase) or 10 μg of hsSB protein (Querques et al., 2019) using a 4D Nucleofector (Lonza) as per the manufacturer's instructions. […]\nWe next investigated if the dd-SB100X fusion-transposase retained transposition activity in primary human T cells. […] We observed differences in CD19-CAR_EGFRt expression, as evidenced by mean fluorescence intensity (MFI) of EGFRt by flow cytometry."}, "[2]": {"system": "K562/CD19 target cells", "assay": "Antigen specific proliferation (CFSE dye dilution) of CD19 CAR T cells", "conditions": "72 hours, stimulation with K562/CD19 target cells", "description": "(4E) Antigen specific proliferation by CD4+ CD19 CAR T cells engineered with dd-SB100X fusion transposase. Proliferation of CD4+ CAR T cells was examined by CFSE dye dilution after 72 hours of co-culture with K562/CD19 or K562 target cells. For analysis, triplicate wells were pooled and the proliferation of viable 7-AAD-negative T cells was analyzed. The division index (average number of cell divisions) was calculated using FlowJo software. Data shown are mean values ±s.d. of one representative experiment.\nas §1, with “Fisher).” for “Fisher). Two days post-activation, approximately 2 million T cells were nucleofected with vectors (1 μg of CD19 CAR (EGFRt)-encoding transposon as plasmid or minicircle DNA; 1 μg of mRNA encoding SB transposase) or 10 μg of hsSB protein (Querques et al., 2019) using a 4D Nucleofector (Lonza) as per the manufacturer's instructions.”"}, "[3]": {"system": "CD8+ T cells", "assay": "Gene transfer in CD8+ T cells with TMP priming before nucleofection", "conditions": "day 7", "description": "CD8+ T cells were isolated from healthy donor PBMC and activated with CD3/CD28 bead stimulation. […] Cells were nucleofected with CD19-CAR_EGFRt SB transposon minicircle DNA and plasmid encoding either the wild type SB transposase (SB100X) or the fusion-transposase (dd-SB100X). […] At 7 days post-nucleofection, flow cytometric analysis was performed to determine the percentage of T cells that expresses the EGFRt reporter. Top panel: Dot plots show EGFRt expression on day 7 post-nucleofection.\nas §1, with “instructions. CD19 CAR-modified (i.e., EGFRt+) T cells were enriched using biotin-conjugated anti-EGFR monoclonal antibody and anti-biotin beads (Miltenyi) as per the manufacturer's instructions.” for “instructions.”"}, "[4]": {"system": "HeLa cells", "assay": "Transposition assay (G-418-resistant colonies) in HeLa cells", "conditions": "presence of TMP", "excerpt": "(2D) Transposition assay for evaluating the activity of dd-SB100X fusion-transposase. HeLa cells were transfected with neomycin-marked transposon plasmid and construct expressing wild type SB transposase (SB100X) or fusion-transposase (dd-SB100X), and selected for transposition events by antibiotic selection with G-418. Data representing the number of G-418-resistant colonies are shown on the right.\nAn transposon donor vector with neomycin resistance gene was generated de novo in house using Gibson assembly. In order to test the activity (in terms of integration capability) of the fusion-transposase (dd-SB100X) transposition assay was performed in HeLa cells as per the published protocol (Ivics et al., 1997). Briefly, ˜150,000 HeLa cells were seeded into each well of a 6-well plate a day before transfection. […] After 10 days of selection, cells were washed with PBS, fixed with tissue culture fixing solution, stained with methylene blue and counted.\nWe next examined the activity of the fusion-transposase (dd-SB100X) by standard transposition assay wherein we transfected HeLa cells with a SB transposon donor plasmid encoding a neomycin resistance gene, together with plasmid encoding SB100X as a positive control, or the fusion-transposase protein. […] After 10 days, colonies were fixed, stained and counted to determine the integration events achieved under each of the experimental conditions."}, "[5]": {"system": "CD19 CAR T cells", "assay": "Transposon (CAR) copy number analysis by ddPCR in CAR T cells", "conditions": "plasmid-encoded transposase, EGFRt-enriched CAR T cells", "description": "(4C) CAR Copy number analysis of CD8+ CD19 CAR T cells engineered with dd-SB100X fusion transposase. The number of integrations per genome was analyzed by ddPCR. Data shown are mean values of three biological replicates measured in technical triplicates and shown ±S.E.M. The data was analyzed using unpaired, two-tailed Student's T-test and differences were statistically significant (*, p=0.0274).\n(6D) Transposon copy number analysis in EGFRt+ CD8+ T cells that were nucleofected with CD19-CAR_EGFRt SB transposon minicircle DNA and mRNA encoding either the wild type SB transposase (SB100X) or the fusion-transposase (dd-SB100X) assessed by digital droplet PCR.\nGenomic DNA (gDNA) of CAR-positive T cells was isolated using dPureLink gDNA Mini Kit (Invitrogen, California, USA). Droplet digital PCR (ddPCR) was set up and analyzed in technical triplicates. Each ddPCR reaction contained ready-to-use ddPCR Supermix for Probes No dUTP (Bio-Rad, California, USA), 20 ng of the respective fragmented gDNA, 0.2 μL of CviQl (10 000 U/mL) (NEB, Frankfurt am Main, Germany), 0.1 μL of Dpnl (20,000 U/mL) (NEB, Frankfurt am Main, Germany), 200 nM of each respective ddPCR FAM/HEX probe, and 600 nM of each respective forward and reverse primer in a final volume of 25 μL. CviQl was used to fragment the gDNA to ensure single-copies per droplet. DPNI was used to specifically digest non-integrated vectors. […]"}},
  "data": [
    {"molecule": "dd-SB100X: ecDHFR destabilizing domain fused via linker to N-terminus of SB100X transposase; SEQ ID NO: 2 (protein, misc_feature 1..1539 ecDHFR-SB100X) MISLIAALAVDYVIGMENAMPWNLPADLAWFKRNTLNKPVIMGRHTWESIGRPLPGRKNIILSSQPSTDDRVTWVKSVDEAIAACGDVPEIMVIGGGRVIEQFLPKAQKLYLTHIDAEVEGDTHFPDYEPDDWESVFSEFHDADAQNSHSYCFEILERKLGGGAPAVGGGPKMGKSKEISQDLRKRIVDLHKSGSSLGAISKRLAVPRSSVQTIVRKYKHHGTTQPSYRSGRRRVLSPRDERTLVRKVQINPRTTAKDLVKMLEETGTKVSISTVKRVLYRHNLKGHSARKKPLLQNRHKKARLRFATAHGDKDRTFWRNVLWSDETKIELFGHNDHRYVWRKKGEACKPKNTIPTVKHGGGSIMLWGCFAAGGTGALHKIDGIMDAVQYVDILKQHLKTSVRKLKLGRKWVFQHDNDPKHTSKVVAKWLKDNKVKVLEWPSQSPDLNPIENLWAELKKRVRARRPTNLTQLHQLCQEEWAKIHPNYCGKLVEGYPKRLTQVKQFKGNATKY", "values": [
      {"measurement": "gene transfer rate (EGFRt+ T cells)", "setting": "[1]; cultured in absence of TMP after nucleofection", "value": "~6.6", "unit": "%"},
      {"measurement": "gene transfer rate (EGFRt+ T cells)", "setting": "[1]; dd-SB100X cultured in presence of TMP after nucleofection, SB100X wild type control", "value": "~18", "unit": "%"},
      {"measurement": "MFI of EGFRt compared to wild type SB100X", "setting": "[1]; presence of TMP", "value": "lower MFI"},
      {"measurement": "proliferation (cell divisions)", "setting": "[2]", "value": "> 3", "unit": "cell divisions"},
      {"measurement": "MFI of EGFRt expression compared to wild type SB100X", "setting": "[3]", "value": "lower MFI"},
      {"measurement": "gene transfer (EGFRt+ T cells)", "setting": "[3]; not primed with TMP", "value": "~26.1", "unit": "%"},
      {"measurement": "gene transfer (EGFRt+ T cells)", "setting": "[3]; primed with TMP 1000 nM for 24 hours before nucleofection", "value": "~29.7", "unit": "%"},
      {"measurement": "transposition activity", "setting": "[4]", "value": "active and mediated transposition activity"},
      {"measurement": "transposition activity compared to wild type SB100X", "setting": "[4]", "value": "reduced transposition activity"},
      {"measurement": "transposon copies per genome (average)", "setting": "[5]", "value": 2.99, "unit": "copies per genome"}
    ]}
  ]
}
